Data published in paper PMC9852238 (Nature Communications, 2023).

B1: IY-2A (antibody, V domains shown)
VH: QVQLVEWGAGLLKPSETLSLTCAVYGGSFSGYYWSWIRQPPGKGLEWIGLINHSGSTNYNPSLKSRVTISLDTSKNQFSLKLTSVTAADTAVYYCARGLGIFGVVTLSDVWGQGTTVTVSS
VL: NFMLTQPHSVSESPGKTVTISCTGSSGSIASNYVQWYQQRPGSAPTTVIYEDNQRPSGVPDRFSGSIDSSSNSASLTISGLRTEDEADYYCQSYDSGIWVFGGGTKLTVL
notes: source: ExpiCHO cells, transiently transfected, purified (rProtein A Sepharose); copies: 2 + 2
B2: FP-12A (antibody, V domains shown)
VH: EVQLVESGGGVVQPGRSLRLSCAASGFTFSSYGMHWVRQAPGKGLEWVAVISYDGSNKYYADSVKGRFTISRDNSKNTLYLQMNSLRAEDTAVYYCANGFGEYYYYAMDVWGQGTTVTVSS
VL: NFMLTQPHSVSESPGKTVTISCTGSSGSIASNYVQWYQRRPGSAPTTVIYEDNQRPSGVPDRFSASIDSSSNSASLTISGLKTEDEADYYCQSYDSSNWVFGGGTKLTVL
notes: copies: 2 + 2
B3: IS-9A (antibody, V domains shown)
VH: QVQLVQSGAEVKKPGESLRISCKGSGYSFTNYWISWVRQMPGKGLEWMGRIDPSDSYINYSPSFQGHATISADKSISTAYLQWGSLKASDTAMYYCARGRNYLDSRGRFDYWGQGTLVTVSS
VL: DIVMTQSPSSLSASVGDRVTITCQASQDISNYLNWYQQKSGKAPKLLIYDASNLETGVPSRFSGSGSGTDFTFTISSLQPEDIATYYCQQYDSLGFTFGPGTKVEIR
notes: as for B1
B4: EY-6A (antibody, V domains shown)
VH: EVQLVESGGGVVQPGRSLRLSCAASAFTFSSYDMHWVRQAPGKGLEWVAVISYDGSNKYYADSVKGRFTISRDNSKNTLYLQMNSLRAEDTAVYYCAKDGGKLWVYYFDYWGQGTTVTVSS
VL: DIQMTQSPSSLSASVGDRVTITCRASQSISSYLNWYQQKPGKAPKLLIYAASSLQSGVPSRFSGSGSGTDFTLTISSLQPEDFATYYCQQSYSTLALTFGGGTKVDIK
notes: also called mAb EY-6A; source: ExpiCHO cells, transiently transfected, purified (rProtein A Sepharose); copies: 2 + 2

Assays:
[1] = biological target: RaTG13-CoV RBD-His8-SpyTag003 (Bat coronavirus RaTG13); assay: ELISA; conditions: both partners purified
[2] = biological target: SHC014-CoV RBD-His8-SpyTag003 (Bat SARS-like coronavirus RsSHC014); assay: ELISA; conditions: both partners purified
[3] = biological target: Rs4081-CoV RBD-His8-SpyTag003 (Bat SARS-like coronavirus Rs4081); assay: ELISA; conditions: both partners purified
[4] = biological target: pangolin17 (pang17)-CoV RBD-His8-SpyTag003 (pangolin17-CoV); assay: ELISA; conditions: both partners purified
[5] = biological target: RmYN02-CoV RBD-His8-SpyTag003 (Bat coronavirus RmYN02); assay: ELISA; conditions: both partners purified
[6] = biological target: T1, Rf1-CoV RBD-His8-SpyTag003 (Bat SARS-like coronavirus Rf1); assay: ELISA; conditions: both partners purified
T1 construct: clade 2

[7] = biological target: WIV1-CoV RBD-His8-SpyTag003 (Bat SARS-like coronavirus WIV1); assay: ELISA; conditions: both partners purified
[8] = biological target: T2, Yunnan2011 (Yun11)-CoV RBD-His8-SpyTag003 (Bat coronavirus Cp/Yunnan2011); assay: ELISA; conditions: both partners purified
T2 construct: clade 2

[9] = biological target: BM48-31-CoV RBD-His8-SpyTag003 (Bat coronavirus BM48-31); assay: ELISA; conditions: both partners purified
[10] = biological target: SARS-CoV spike, ELISA antigen (SARS-CoV, strain not named (reference …, UniProt P59594)); assay: ELISA; conditions: both partners purified
[11] = biological target: SARS-CoV-2 spike (S) protein, ELISA antigen (SARS-CoV-2, Wuhan-Hu-1 (assumed), UniProt P0DTC2); assay: ELISA; conditions: both partners purified
[12] = biological target: T3, SARS-CoV-2 RBD (wild type), ELISA antigen (SARS-CoV-2, UniProt P0DTC2); assay: ELISA; conditions: both partners purified
[13] = biological target: SARS-CoV RBD-His8-SpyTag003 (SARS-CoV (GenBank ON131087, strain not …, UniProt P59594)); assay: ELISA; conditions: both partners purified
[14] = biological target: T3, SARS-CoV-2 RBD (wild type), ELISA …; assay: cell-based or functional assay

Binder	binding result [1]	binding result [2]	binding result [3]	binding result [4]	binding result [5]	binding result [6]	binding result [7]	binding result [8]	binding result [9]	OD in ELISA at 1 µg/ml [10] [OD]	OD in ELISA at 1 µg/ml [11] [OD]	OD in ELISA at 1 µg/ml [12] [OD]	binding result [13]	IC50 of neutralisation of SARS-CoV-2 (potency of IS-9A) [14] [µg/mL]
B1	binds	binds	binds	binds	binds	binds	binds	binds	binds	1.78	1.8	1.87		
B2	no binding (tested: 50 nM)	no binding (tested: 50 nM)	no binding (tested: 50 nM)	no binding (tested: 50 nM)	no binding (tested: 50 nM)	no binding (tested: 50 nM)	no binding (tested: 50 nM)	no binding (tested: 50 nM)	no binding (tested: 50 nM)		1.76	1.79	no binding (tested: 50 nM)	
B3	binds	binds					binds			1.83	1.78	1.88		0.03
B4	binds	binds	binds	binds	binds	binds	binds	binds	binds	1.67	1.75	1.81		
